Substitutions are numbered along the chain they refer to. Numbers in names are those of the source. Each block holds one molecule with its values, some of them ahead of it.
Legend:
[1] = Example 10: derhamnosylation of saponins in crude bark extract (50%) using WT and engineered rhamnosidases R1 to R5; type: biochemical, Quillaja saponaria; settings: 7 h, 50% CBE, 35 degC; for % Right Peak: starting CBE 26; for % Left Peak: starting CBE 30; for % Middle Peak: starting CBE 44
Procedure: Lyophilised powders from clarified cell lysate expressing glucosidases (from Example 8 WT glucosidase and engineered glucosidase polypeptides G1 to G5) and rhamnosidases (from Example 9 WT rhamnosidase and engineered rhamnosidase polypeptides R1 to R5) were dissolved in 200 mM sodium acetate aqueous solution at pH 5.8 to prepare the enzyme solutions at 4 fold the final reaction concentration as shown in Tables 19 and 20.
Each rhamnosidase solution was combined with an equal volume of 200 mM sodium acetate aqueous solution at pH 5.8 and separately with an equal volume of 200 mM sodium acetate aqueous solution at pH 5.8 containing 2 mg/ml glucosidase G5. This is a sufficient loading of glucosidase to effect complete hydrolysis of the relevant glucose moiety within 4 hours.
CBE was adjusted to pH of 6.0 to 6.2 with 2M sodium hydroxide and an equal volume added to the enzyme solution to prepare the reaction mix (i.e. 50% CBE concentration in reaction mix) and the concentration of glucosidase and/or rhamnosidase is shown in Tables 19 and 20. The reaction mix was heated to 35 degC for the time indicated in Tables 19 and 20, after which the reaction was quenched by addition of an equal volume of MeCN containing 2% acetic acid and shaken at room temperature for 10 mins prior to centrifugation (10 min, 4 degC) to remove particulates. Samples were analysed by UV HPLC using method of Experiment 4-4.
The change in composition of the Left, Middle and Right peaks is shown in Tables 19 and 20. The composition changes by the action of the enzymes depending on the presence or absence of the partner enzyme. The extent of reaction is proportional to the enzyme concentration and the reaction time under these conditions. The tables show data for enzyme concentrations and the reaction times providing for equivalent extents of reaction. The improvement resulting from the mutations introduced for each variant is equal to the fold change in enzyme concentration×time (i.e. fold improvement=(enzyme concentration×time) for preceding variant÷(enzyme concentration×time) for later variant). A cumulative fold improvement over the original enzyme variant is calculated by the product of the individual fold improvements.

[2] = Example 9: screening of rhamnosidase variants for derhamnosylation of saponins in crude bark extract; type: biochemical, Quillaja saponaria; settings: for Cumulative FIOP from WT: estimate
Procedure: Libraries of genetic variants encoding mutations in the wild type Kribbella flavida rhamnosidase (SEQ ID No. 1017) were prepared using molecular biology techniques, enzymes were prepared linked to a C-terminally located His-tag. Single monoclonal colonies were grown in 400 ul of expression medium and protein expressed. Cell pellets were lysed in 200 ul of the relevant buffer (Table 17).
Lysate was diluted appropriately in the relevant buffer to allow a lysate loading of the indicated % loading (1% loading corresponds to use of 2 ul original lysate in a 200 ul reaction).
Crude bark extract (CBE) obtained by aqueous extraction of Quillaja saponaria and containing at least 2.80 mg/ml QS-21 (by HPLC-UV) was adjusted to pH 6 by dropwise addition of 2M NaOH with stirring. The relevant concentration of the relevant glucosidase was added. The appropriate relative volume of pH 6 CBE (160 ul (for 80%) or 150 ul (for 75%)) was added to each well of the reaction plate. The reaction plate was sealed and incubated at the relevant temperature and time.
The reaction plate was quenched by adding 200 uL of MeCN (2% AcOH, 1 mg/mL hexanophenone) to each well of the plates. The quenched reaction plate was re-sealed and incubated at 20 deg C. with shaking for 10 min. The reaction plate was then centrifuged (10 min, 4 degC).
200 uL was transferred from each well of the quenched plate to the corresponding wells of a fresh 96 well plate and sealed. The plate was analysed by UV HPLC with the method described in Example 4.
Three key peaks of interest are apparent using this chromatography: Left Peak (retention time approximately 2.30-2.35 min) comprising mainly QS-17 family components; Middle Peak (retention time approximately 2.37-2.42 min) comprising mainly QS-18 family components and desglucosyl-QS-17 family components; and Right Peak (retention time approximately 2.44-2.50 min) comprising mainly QS-21 family components. Peak identity was supported by MS/MS.
Enzyme activity is calculated as the % conversion of the Left Peak present in the crude bark extract: […]

[3] = rhamnosidase 1.25 mg/ml + glucosidase G5 0.5 mg/ml
[4] = rhamnosidase 1.25 mg/ml, no glucosidase
[5] = R2 round: 20 deg C, 20 h, lysate 1.25% v/v, CBE 80% v/v, 100 mM Potassium phosphate pH 6
[6] = R3 round: 35 deg C, 18 h, lysate 0.4% v/v, CBE 75% v/v, 100 mM Sodium acetate pH 5.8
[7] = R3 round: 35 deg C, 18 h, lysate 0.4% v/v, CBE 75% v/v, 100 mM Sodium acetate pH 5.8, negative control 26.60
[8] = R3 round: 35 deg C, 18 h, lysate 0.4% v/v, CBE 75% v/v, 100 mM Sodium acetate pH 5.8, negative control 28.91
[9] = R3 round: 35 deg C, 18 h, lysate 0.4% v/v, CBE 75% v/v, 100 mM Sodium acetate pH 5.8, negative control 44.49
[10] = R3 round: 35 deg C, 18 h, lysate 0.4% v/v, CBE 75% v/v, 100 mM Sodium acetate pH 5.8, negative control 47.91
[11] = rhamnosidase 0.63 mg/ml + glucosidase G5 0.5 mg/ml
[12] = rhamnosidase 0.63 mg/ml, no glucosidase

Cumulative Fold improvement in primary enzyme loading × time [1, 3]: 4
Fold improvement in primary enzyme loading × time [1, 3]: 2.0
Cumulative Fold improvement in primary enzyme loading × time [1, 4]: 4
Fold improvement in primary enzyme loading × time [1, 4]: 2.0
Left Peak % ([2]; R2 round: 20 deg C, 20 h, lysate 1.25% v/v, CBE 80% v/v, 100 mM Potassium phosphate pH 6, negative control 23.63): 22.76%
Right Peak % ([2]; R2 round: 20 deg C, 20 h, lysate 1.25% v/v, CBE 80% v/v, 100 mM Potassium phosphate pH 6, negative control 26.10): 26.27%
Middle Peak % ([2]; R2 round: 20 deg C, 20 h, lysate 1.25% v/v, CBE 80% v/v, 100 mM Potassium phosphate pH 6, negative control 50.27): 50.97%
Right Peak % [2, 7]: 27.59%
Left Peak % [2, 8]: 25.57%
Middle Peak % [2, 9]: 46.84%
B1: Variant R2: engineered rhamnosidase polypeptide, variant of Kribbella flavida rhamnosidase SEQ ID No. 1017 (protein)
chain: MSFPAAPARLRFEHRTDPGPVLGIGTATPRLSWQVPTAPDDYRQAGYEVEIARGDAAPEQYTVDSADQVLVPWPGTPLAARESATVRVRVRGDGDWSQWSDPATVEAGLLSADDWTARFVSPRENAGHEAPAPLIGGVIDLPPDIAQARLYATAHGIYEPTLNGTRVGDEQLAPGWTAYEQRLRYQTYDVTDLVAPGENRLELLVGNGWYRGRMGFHGGHSLYGDRLAVLAQLEVTTATGEVKVLASDGTWTTRETNVLADDLYDGQHVDLRRTLGEPGPVDVLDADLSLLVAPDGPPVRVTDVLPAKAVTTSPAGKTLVDFGQNVVGRLRLRVRGGAAGDEIVLRHAEVLEDGELGVRPLRTAKATDSFVLAGPDEVTLEPTLTFHGFRYAEITGVPDLRAEDVEAVVVGSDLRRTGWFESSHPLLDRFHENVVWGMRGNFLDVPTDCPQRDERLGWTGDIQVFSPTASFLFDTAGFLTNWLADLIAEQHKDGSVPFVVPDVLRQPGPATAAWGDAATIVPWVLYERTGDAGLLARQLPSMRAWVDRMAGLAGDDLLWVGGFQFGDWLDPTAPPDDPFRAKADPDVLATAHLARSAEVVALAAEVVGAGELAREYAELAARVRQAFAAEYTTGSGRVLSDAATNYALALQWALLPTEAQRKRAGERLADLVRTAGFRISTGFVGTPLMADALADSGHPDLAYRLLLETGCPSWLYAVTMDATTVWERWDSMLPDGSINPGQMTSFNHYALGAVADWMHRRVAGLAPGDPGYRRIVVDPLFTAHLTKASARHLTPYGEAAVAWSRSGGRVRLEVTVPVGARARVAVPGESAPVEVGHGTHEWTADDVYGETPPLPADATIRQLIDHEPSWTTLAAAATRTGIVADDAELAGRLERYLDHPATELVDAVSPRGFSPSAEALHAELDSVLGR
modifications: Seq ID No. 1017 with mutations A143P, L214M, K219G, Q921H
% change in Left Peak [1, 3]: −40%
% change in Middle Peak [1, 3]: −96%
% change in Right Peak [1, 3]: 309%
% Right Peak [1, 3]: 80%
% Left Peak [1, 3]: 18%
% Middle Peak [1, 3]: 2%
% change in Left Peak [1, 4]: −39%
% change in Middle Peak [1, 4]: 19%
% change in Right Peak [1, 4]: 113%
% Right Peak [1, 4]: 29%
% Left Peak [1, 4]: 18%
% Middle Peak [1, 4]: 52%
% conversion (Right peak/Left Peak) (−neg control) [2, 5]: 1.09%
Cumulative FIOP from WT [2, 5]: 2.9
% conversion (Right peak/Left Peak) ([2]; R2 round: 20 deg C, 20 h, lysate 1.25% v/v, CBE 80% v/v, 100 mM Potassium phosphate pH 6, negative control 52.49): 53.57%
FIOP (% area increase variant/pos control) ([2]; R2 round: 20 deg C, 20 h, lysate 1.25% v/v, CBE 80% v/v, 100 mM Potassium phosphate pH 6, positive control WT): 2.9
% conversion (Right peak/Left Peak) (−neg control) [2, 6]: 3.99%
% conversion (Right peak/Left Peak) [2, 10]: 51.90%

Cumulative Fold improvement in primary enzyme loading × time [1, 11]: 8
Fold improvement in primary enzyme loading × time [1, 11]: 2.0
Cumulative Fold improvement in primary enzyme loading × time [1, 12]: 8
Fold improvement in primary enzyme loading × time [1, 12]: 2.0
Right Peak % [2, 7]: 29.45%
Left Peak % [2, 8]: 18.85%
Middle Peak % [2, 9]: 51.70%
Right Peak % ([2]; R4 round: 35 deg C, 18 h, lysate 0.125% v/v, CBE 75% v/v, 100 mM Sodium acetate pH 5.8, negative control 26.09): 26.56%
Left Peak % ([2]; R4 round: 35 deg C, 18 h, lysate 0.125% v/v, CBE 75% v/v, 100 mM Sodium acetate pH 5.8, negative control 29.62): 27.65%
Middle Peak % ([2]; R4 round: 35 deg C, 18 h, lysate 0.125% v/v, CBE 75% v/v, 100 mM Sodium acetate pH 5.8, negative control 44.29): 45.79%
B2: Variant R3: engineered rhamnosidase polypeptide, variant of Kribbella flavida rhamnosidase SEQ ID No. 1017 (protein)
chain: B1 chain with G357C
modifications: Seq ID No. 1017 with mutations A143P, L214M, K219G, Q921H, G357C
% change in Left Peak [1, 11]: −38%
% change in Middle Peak [1, 11]: −99%
% change in Right Peak [1, 11]: 311%
% Right Peak [1, 11]: 81%
% Left Peak [1, 11]: 19%
% Middle Peak [1, 11]: 0%
% change in Left Peak [1, 12]: −45%
% change in Middle Peak [1, 12]: 21%
% change in Right Peak [1, 12]: 116%
% Right Peak [1, 12]: 30%
% Left Peak [1, 12]: 16%
% Middle Peak [1, 12]: 53%
% conversion (Right peak/Left Peak) (−neg control) [2, 6]: 13.06%
Cumulative FIOP from WT [2, 6]: 9.4
% conversion (Right peak/Left Peak) [2, 10]: 60.97%
FIOP (% area increase variant/pos control) ([2]; R3 round: 35 deg C, 18 h, lysate 0.4% v/v, CBE 75% v/v, 100 mM Sodium acetate pH 5.8, positive control R2): 3.3
% conversion (Right peak/Left Peak) (−neg control) ([2]; R4 round: 35 deg C, 18 h, lysate 0.125% v/v, CBE 75% v/v, 100 mM Sodium acetate pH 5.8): 2.16%
% conversion (Right peak/Left Peak) ([2]; R4 round: 35 deg C, 18 h, lysate 0.125% v/v, CBE 75% v/v, 100 mM Sodium acetate pH 5.8, negative control 46.84): 49.00%

— patent publication US20240026407A1, “MODIFICATION OF SAPONINS” (GLAXOSMITHKLINE BIOLOGICALS SA, priority 2020, published 2024)
